Results: US20200261490

Experiments:
[1] = biological target: recombinant human stanniocalcin 2, C-terminally myc-his-tagged
[2] = biological target: recombinant human stanniocalcin 1, C-terminally myc-his-tagged

Protein | cleavage of 125I-IGFBP-5 by the proteinase with a 10-fold molar excess of STC, 8 h preincubation [1] | cleavage of 125I-IGFBP-5 by the proteinase with a 10-fold molar excess of STC [2] | other results
human matrix metalloproteinase-2 (protein) APSPIIKFPGDVAPKTDKELAVQYLNTFYGCPKESCNLFVLKDTLKKMQKFFGLPQTGDLDQNTIETMRKPRCGNPDVANYNFFPRKPKWDKNQITYRIIGYTPDLDPETVDDAFARAFQVWSDVTPLRFSRIHDGEADIMINFGRWEHGDGYPFDGKDGLLAHAFAPGTGVGGDSHFDDDELWTLGEGQVVRVKYGNADGEYCKFPFLFNGKEYNSCTDTGRSDGFLWCSTTYNFEKDGKYGFCPHEALFTMGGNAEGQPCKFPFRFQGTSYDSCTTEGRTDGYRWCGTTEDYDRDKKYGFCPETAMSTVGGNSEGAPCVFPFTFLGNKYESCTSAGRSDGKMWCATTANYDDDRKWGFCPDQGYSLFLVAAHEFGHAMGLEHSQDPGALMAPIYTYTKNFRLSQDDIKGIQELYGASPDIDLGTGPTPTLGPVTPEICKQDIVFDGIAQIRGEIFFFKDRFIWRTVTPRDKPMGPLLVATFWPELPEKIDAVYEAPQEEKAVFFAGNEYWIYSASTLERGYPKPLTSLGLPPDVQRVDAAFNWSKNKKTYIFAGDKFWRYNEVKKKMDPGFPKLIADAWNAIPDNLDAVVDLQGGGHSYFFKGAYYLKLENQSLKSVKFGSIKSDWLGC | None of the proteinases tested was inhibited by STC1, or by STC2 following incubation | None of the proteinases tested was inhibited by STC1, or by STC2 following incubation | 
human ADAM-10 (protein) TTSAEKNTCQLYIQTDHLFFKYYGTREAVIAQISSHVKAIDTIYQTTDFSGIRNISFMVKRIRINTTADEKDPTNPFRFPNIGVEKFLELNSEQNHDDYCLAYVFTDRDFDDGVLGLAWVGAPSGSSGGICEKSKLYSDGKKKSLNTGIITVQNYGSHVPPKVSHITFAHEVGHNFGSPHDSGTECTPGESKNLGQKENGNYIMYARATSGDKLNNNKFSLCSIRNISQVLEKKRNNCFVESGQPICGNGMVEQGEECDCGYSDQCKDECCFDANQPEGRKCKLKPGKQCSPSQGPCCTAQCAFKSKSEKCRDDSDCAREGICNGFTALCPASDPKPNFTDCNRHTQVCINGQCAGSICEKYGLEECTCASSDGKDDKELCHVCCMKKMDPSTCASTGSVQWSRHFSGRTITLQPGSPCNDFRGYCDVFMRCRLVDADGPLARLKKAIFSPELYENIAE | None of the proteinases tested was inhibited by STC1, or by STC2 following incubation | None of the proteinases tested was inhibited by STC1, or by STC2 following incubation | 
human matriptase (protein) VVGGTDADEGEWPWQVSLHALGQGHICGASLISPNWLVSAAHCYIDDRGFRYSDPTQWTAFLGLHDQSQRSAPGVQERRLKRIISHPFFNDFTFDYDIALLELEKPAEYSSMVRPICLPDASHVFPAGKAIWVTGWGHTQYGGTGALILQKGEIRVINQTTCENLLPQQITPRMMCVGFLSGGVDSCQGDSGGPLSSVEADGRIFQAGVVSWGDGCAQRNKPGVYTRLPLFRDWIKENTGV | None of the proteinases tested was inhibited by STC1, or by STC2 following incubation | None of the proteinases tested was inhibited by STC1, or by STC2 following incubation | 
human PAPP-A2 (pappalysin-2) (protein) PPEESNQNGGEGSYREAETFNSQVGLPILYFSGRRERLLLRPEVLAEIPREAFTVEAWVKPEGGQNNPAIIAGVFDNCSHTVSDKGWALGIRSGKDKGKRDARFFFSLCTDRVKKATILISHSRYQPGTWTHVAATYDGRHMALYVDGTQVASSLDQSGPLNSPFMASCRSLLLGGDSSEDGHYFRGHLGTLVFWSTALPQSHFQHSSQHSSGEEEATDLVLTASFEPVNTEWVPFRDEKYPRLEVLQGFEPEPEILSPLQPPLCGQTVCDNVELISQYNGYWPLRGEKVIRYQVVNICDDEGLNPIVSEEQIRLQHEALNEAFSRYNISWQLSVHQVHNSTLRHRVVLVNCEPSKIGNDHCDPECEHPLTGYDGGDCRLQGRCYSWNRRDGLCHVECNNMLNDFDDGDCCDPQVADVRKTCFDPDSPKRAYMSVKELKEALQLNSTHFLNIYFASSVREDLAGAATWPWDKDAVTHLGGIVLSPAYYGMPGHTDTMIHEVGHVLGLYHVFKGVSERESCNDPCKETVPSMETGDLCADTAPTPKSELCREPEPTSDTCGFTRFPGAPFTNYMSYTDDNCTDNFTPNQVARMHCYLDLVYQQWTESRKPTPIPIPPMVIGQTNKSLTIHWLPPISGVVYDRASGSLCGACTEDGTFRQYVHTASSRRVCDSSGYWTPEEAVGPPDVDQPCEPSLQAWSPEVHLYHMNMTVPCPTEGCSLELLFQHPVQADTLTLWVTSFFMESSQVLFDTEILLENKESVHLGPLDTFCDIPLTIKLHVDGKVSGVKVYTFDERIEIDAALLTSQPHSPLCSGCRPVRYQVLRDPPFASGLPVVVTHSHRKFTDVEVTPGQMYQYQVLAEAGGELGEASPPLNHIHGAPYCGDGKVSERLGEECDDGDLVSGDGCSKVCELEEGFNCVGEPSLCYMYEGDGICEPFERKTSIVDCGIYTPKGYLDQWATRAYSSHEDKKKCPVSLVTGEPHSLICTSYHPDLPNHRPLTGWFPCVASENETQDDRSEQPEGSLKKEDEVWLKVCFNRPGEARAIFIFLTTDGLVPGEHQQPTVTLYLTDVRGSNHSLGTYGLSCQHNPLIINVTHHQNVLFHHTTSVLLNFSSPRVGISAVALRTSSRIGLSAPSNCISEDEGQNHQGQSCIHRPCGKQDSCPSLLLDHADVVNCTSIGPGLMKCAITCQRGFALQASSGQYIRPMQKEILLTCSSGHWDQNVSCLPVDCGVPDPSLVNYANFSCSEGTKFLKRCSISCVPPAKLQGLSPWLTCLEDGLWSLPEVYCKLECDAPPIILNANLLLPHCLQDNHDVGTICKYECKPGYYVAESAEGKVRNKLLKIQCLEGGIWEQGSCIPVVCEPPPPVFEGMYECTNGFSLDSQCVLNCNQEREKLPILCTKEGLWTQEFKLCENLQGECPPPPSELNSVEYKCEQGYGIGAVCSPLCVIPPSDPVMLPENITADTLEHWMEPVKVQSIVCTGRRQWHPDPVLVHCIQSCEPFQADGWCDTINNRAYCHYDGGDCCSSTLSSKKVIPFAADCDLDECTCRDPKAEENQ |  |  | cleavage of 125I-IGFBP-5 by PAPP-A2 [1]: both STCs were able to partially inhibit PAPP-A2 (pappalysin-2); cleavage of 125I-IGFBP-5 by PAPP-A2 [2]: both STCs were able to partially inhibit PAPP-A2 (pappalysin-2)
recombinant human PAPP-A (pregnancy-associated plasma protein-A, pappalysin-1) (protein) EARGATEEPSPPSRALYFSGRGEQLRLRADLELPRDAFTLQVWLRAEGGQRSPAVITGLYDKCSYISRDRGWVVGIHTISDQDNKDPRYFFSLKTDRARQVTTINAHRSYLPGQWVYLAATYDGQFMKLYVNGAQVATSGEQVGGIFSPLTQKCKVLMLGGSALNHNYRGYIEHFSLWKVARTQREILSDMETHGAHTALPQLLLQENWDNVKHAWSPMKDGSSPKVEFSNAHGFLLDTSLEPPLCGQTLCDNTEVIASYNQLSSFRQPKVVRYRVVNLYEDDHKNPTVTREQVDFQHHQLAEAFKQYNISWELDVLEVSNSSLRRRLILANCDISKIGDENCDPECNHTLTGHDGGDCRHLRHPAFVKKQHNGVCDMDCNYERFNFDGGECCDPEITNVTQTCFDPDSPHRAYLDVNELKNILKLDGSTHLNIFFAKSSEEELAGVATWPWDKEALMHLGGIVLNPSFYGMPGHTHTMIHEIGHSLGLYHVFRGISEIQSCSDPCMETEPSFETGDLCNDTNPAPKHKSCGDPGPGNDTCGFHSFFNTPYNNFMSYADDDCTDSFTPNQVARMHCYLDLVYQGWQPSRKPAPVALAPQVLGHTTDSVTLEWFPPIDGHFFERELGSACHLCLEGRILVQYASNASSPMPCSPSGHWSPREAEGHPDVEQPCKSSVRTWSPNSAVNPHTVPPACPEPQGCYLELEFLYPLVPESLTIWVTFVSTDWDSSGAVNDIKLLAVSGKNISLGPQNVFCDVPLTIRLWDVGEEVYGIQIYTLDEHLEIDAAMLTSTADTPLCLQCKPLKYKVVRDPPLQMDVASILHLNRKFVDMDLNLGSVYQYWVITISGTEESEPSPAVTYIHGSGYCGDGIIQKDQGEQCDDMNKINGDGCSLFCRQEVSFNCIDEPSRCYFHDGDGVCEEFEQKTSIKDCGVYTPQGFLDQWASNASVSHQDQQCPGWVIIGQPAASQVCRTKVIDLSEGISQHAWYPCTISYPYSQLAQTTFWLRAYFSQPMVAAAVIVHLVTDGTYYGDQKQETISVQLLDTKDQSHDLGLHVLSCRNNPLIIPVVHDLSQPFYHSQAVRVSFSSPLVAISGVALRSFDNFDPVTLSSCQRGETYSPAEQSCVHFACEKTDCPELAVENASLNCSSSDRYHGAQCTVSCRTGYVLQIRRDDELIKSQTGPSVTVTCTEGKWNKQVACEPVDCSIPDHHQVYAASFSCPEGTTFGSQCSFQCRHPAQLKGNNSLLTCMEDGLWSFPEALCELMCLAPPPVPNADLQTARCRENKHKVGSFCKYKCKPGYHVPGSSRKSKKRAFKTQCTQDGSWQEGACVPVTCDPPPPKFHGLYQCTNGFQFNSECRIKCEDSDASQGLGSNVIHCRKDGTWNGSFHVCQEMQGQCSVPNELNSNLKLQCPDGYAIGSECATSCLDHNSESIILPMNVTVRDIPHWLNPTRVERVVCTAGLKWYPHPALIHCVKGCEPFMGDNYCDAINNRAFCNYDGGDCCTSTVKTKKVTPFPMSCDLQGDCACRDPQAQEHSRKDLRGYSHG |  |  | PAPP-A cleavage of IGFBP-4 with purified STC added at the beginning of the cleavage reaction [1]: in this experiment, no inhibitory effect of STC2 was observed; PAPP-A mediated cleavage of 125I-IGFBP-4 after overnight pre-incubation [1]: the presence of STC2 fully inhibited PAPP-A mediated IGFBP-4 cleavage; PAPP-A proteolytic activity towards IGFBP-4 after 16 h incubation [1]: after 16 hours of incubation with STC2, PAPP-A showed no activity; PAPP-A cleavage of IGFBP-4 with purified STC added at the beginning of the cleavage reaction [2]: STC1 still inhibited PAPP-A
